From patent US20230313305A1, “METHODS AND USES OF INFLAMMATORY BOWEL DISEASE BIOMARKERS” (Washington University, priority 2017, published 2023)

Test system: latent TGFβ
Assay: Cleavage of latent TGFβ by tPA in cell free assay
Format: biochemical
Details: cell free assay (FIG. 22)

B1: tPA: serine protease that converts plasminogen to plasmin (protein, UniProt P00750 36-562, looked up)
Tissue-type plasminogen …: SYQVICRDEKTQMIYQQHQSWLRPVLRSNRVEYCWCNSGRAQCHSVPVKSCSEPRCFNGGTCQQALYFSDFVCQCPEGFAGKCCEIDTRATCYEDQGISYRGTWSTAESGAECTNWNSSALAQKPYSGRRPDAIRLGLGNHNYCRNPDRDSKPWCYVFKAGKYSSEFCSTPACSEGNSDCYFGNGSAYRGTHSLTESGASCLPWNSMILIGKVYTAQNPSAQALGLGKHNYCRNPDGDAKPWCHVLKNRRLTWEYCDVPSCSTCGLRQYSQPQFRIKGGLFADIASHPWQAAIFAKHRRSPGERFLCGGILISSCWILSAAHCFQERFPPHHLTVILGRTYRVVPGEEEQKFEVEKYIVHKEFDDDTYDNDIALLQLKSDSSRCAQESSVVRTVCLPPADLQLPDWTECELSGYGKHEALSPFYSERLKEAHVRLYPSSRCTSQHLLNRTVTDNMLCAGDTRSGGPQANLHDACQGDSGGPLVCLNDGRMTLVGIISWGLGCGQKDVPGVYTKVTNYLDWIRDNMRP
- cleavage of latent TGFβ: can directly and indirectly cleave
